One block for each molecule: values may come before it.
Columns and labels:
[1] = molecular target: MBP-afadin-PDZ (MBP-fusion protein of the PDZ domain of afadin) (UniProt O35889); test: affinity chromatography on MBP-afadin-PDZ amylose beads, eluate on SDS-PAGE
[2] = molecular target: the molecule itself; test: immunofluorescence microscopy of co-cultured nectin-1α-L and nectin-2α-L cells
Method: Chemical cross-linking was done according to the method described in references (Blood 92: 4602-4611, 1998; J. Biol. Chem., 275: 613-618, 2000). Immunoprecipitation was performed according to the method described in references (J. Cell Biol., 145: 539-549, 1999; J. Biol. Chem., 275: 613-618, 2000). Immunofluorescence microscopy of cultured cells was done according to the method described in references (J. Cell Biol., 139: 517-528, J. Cell Biol., 145: 539-549, 1999; J. Biol. Chem., 275: 613-618, 2000). Protein concentrations were determined with bovine serum albumin as a control, according to the method described in a reference (Anal. Biochem., 72: 248-254, 1976). SDS-PAGE was done as described (Nature, 227: 680-685, 1970).
When nectin-1α-L cells were co-cultured with nectin-2α-L cells, nectin-1α and nectin-2α were localized in the cell-cell contact sites of the respective L cells (FIG. 5, A1-A3). However, neither nectin-1α or nectin-2α was detected in the contact sites of the two types of the L cells. In contrast, when nectin-3α-L cells were co-cultured with nectin-1α-L cells, nectin-3α and nectin-1α coexisted in the cell-cell contact site of the two types of the L cells (FIG. 5, B1-B3). The same result was obtained in co-culture of nectin-3α-L cells and nectin-2α-L cells (FIG. 5, C1-C3).

stoichiometry of binding (nectin-3α:afadin ratio) [1]: 1
Molecule: GST-nectin-3α-CP (GST-fusion protein of the cytoplasmic region of nectin-3α) (from UniProt Q9JLB9 433-549)

B1: Full-length human nectin-1α expressed on L cells (nectin-1α-L cells) (receptor, UniProt Q15223 31-517, looked up)
chain: QVVQVNDSMYGFIGTDVVLHCSFANPLPSVKITQVTWQKSTNGSKQNVAIYNPSMGVSVLAPYRERVEFLRPSFTDGTIRLSRLELEDEGVYICEFATFPTGNRESQLNLTVMAKPTNWIEGTQAVLRAKKGQDDKVLVATCTSANGKPPSVVSWETRLKGEAEYQEIRNPNGTVTVISRYRLVPSREAHQQSLACIVNYHMDRFKESLTLNVQYEPEVTIEGFDGNWYLQRMDVKLTCKADANPPATEYHWTTLNGSLPKGVEAQNRTLFFKGPINYSLAGTYICEATNPIGTRSGQVEVNITEFPYTPSPPEHGRRAGPVPTAIIGGVAGSILLVLIVVGGIVVALRRRRHTFKGDYSTKKHVYGNGYSKAGIPQHHPPMAQNLQYPDDSDDEKKAGPLGGSSYEEEEEEEEGGGGGERKVGGPHPKYDEDAKRPYFTVDEAEARQDGYGDRTLGYQYDPEQLDLAENMVSQNDGSFISKKEWYV
notes: whole, on cells
binding result [2]: binds
